Measurements from patent publication US20220185903A1, “Novel bispecific binding molecule and drug conjugate thereof” (priority 2019, published 2022).
Where a SMILES comes first, the peptide text is derived from it. [ ]: non-standard residue; d: D form. The star is where a group is joined. Dolaproine = CO[C@@H]([C@@H]1CCCN1)[C@@H](C)C(=O)O; Dil = CC[C@H](C)[C@H](NC)[C@@H](CC(=O)O)OC; X1 = C[C@@H](N*)[C@@H](O)c1ccccc1; NMeV = CN[C@H](C(=O)O)C(C)C

Columns and labels:
[1] = system: CD20+/CXCR4+ Ramos cells; assay: Killing activity of ADC on co-cultured Ramos/Jurkat cells: Ramos count; type: cell-based
Method: (§1) 6.2 Analysis of Killing Activity of ADC on Co-Cultured Ramos/Jurkat Cells
(§2) Ramos and Jurkat cells (RPMI 1640 medium containing 10% FBS and 1% double antibody) were cultured, respectively. Jurkat cells were stained with calcein-AM (eBioscience) and Ramos cells stained with Celltracker Organge CMTMR (Invitrogen) according to protocols provided by the manufacturer, followed by washed for three times with PBS. After cell count, Ramos and Jurkat cells were mixed at a ratio of 1:1, and 2×10^4 Ramos/Jurkat mixed cells were added to a U-shaped bottom 96-well plate (90 ul/well). 10 ul of SYN-AC, RTX or RXT-AC with different concentrations was added to the 96-well plate above, and incubated at 37° C., 5% CO2 for 72 hours. The numbers of the Ramos and Jurkat cells were counted with a flow cytometer (BD LSR II with a BD high throughput Sampler (HTS)).

[2] = system: CD20−/CXCR4+ Jurkat cells; assay: Killing activity of ADC on co-cultured Ramos/Jurkat cells: Jurkat count; type: cell-based; conditions: co-cultured Ramos/Jurkat 1:1, 72 hours, flow cytometer count
Method: as §1, §2

[3] = molecular target: T1, CD20 (UniProt P11836 1-297, limits assumed); assay: cell-based or functional assay
T1 sequence (looked up): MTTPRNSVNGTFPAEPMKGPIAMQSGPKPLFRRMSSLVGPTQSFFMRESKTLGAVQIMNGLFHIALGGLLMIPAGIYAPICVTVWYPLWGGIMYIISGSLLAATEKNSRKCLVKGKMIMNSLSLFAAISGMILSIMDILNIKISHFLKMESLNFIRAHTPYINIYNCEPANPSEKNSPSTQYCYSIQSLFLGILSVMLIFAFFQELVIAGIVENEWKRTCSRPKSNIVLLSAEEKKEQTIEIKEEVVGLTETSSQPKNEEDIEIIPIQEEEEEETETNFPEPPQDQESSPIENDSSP

[4] = molecular target: T2, CXCR4 (UniProt P61073 1-352, limits assumed); assay: cell-based or functional assay
T2 sequence (P61073 whole entry): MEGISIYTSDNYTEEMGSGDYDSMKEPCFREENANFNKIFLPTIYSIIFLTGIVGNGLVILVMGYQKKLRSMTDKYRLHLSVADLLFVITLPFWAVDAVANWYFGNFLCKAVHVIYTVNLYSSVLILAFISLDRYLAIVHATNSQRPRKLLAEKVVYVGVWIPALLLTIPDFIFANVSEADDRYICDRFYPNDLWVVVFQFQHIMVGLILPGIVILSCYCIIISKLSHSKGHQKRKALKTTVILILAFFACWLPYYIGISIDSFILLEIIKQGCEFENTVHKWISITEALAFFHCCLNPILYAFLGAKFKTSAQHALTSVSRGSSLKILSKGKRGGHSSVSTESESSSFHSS

[5] = molecular target: T2, CXCR4; assay: flow cytometry on CXCR4+/CD20- Jurkat cells
Method: (§3) The CXCR4⁺/CD20⁻ Jurkat cells and CXCR4^dim/CD20⁺JAB cells were cultured in RPMI 1640 medium containing 10% FBS and […]). Cells were collected by centrifugation, and washed with PBS for 3-4 times. After blocked by 1% BSA (in PBS) at 4° C. for 1 h, the cells were resuspended with PBS with 1% BSA at a density of 5×10⁵/100 μL. […] After being washed with PBS with 1% BSA for 3 times, cells were resuspended with PBS/1% BSA containing a PE-anti-human Fc antibody (Clone HP6017, Biolegend, CA), and incubated at 4° C. for 2 hours. Then an LSR II flow cytometer (Becton Dickinson, N.J.) was applied, and FlowJo software (TreeStar, OR) was used for analysis. Data was analyzed by nonlinear regression using a log (agonist) vs. response model in Prizm Graphpad software.

[6] = molecular target: T2, CXCR4; assay: flow cytometry on CXCR4+/CD20- Jurkat cells, PE-anti-human Fc detection
Method: as §3

CC[C@H](C)[C@@H]([C@@H](CC(=O)N1CCC[C@H]1[C@H](OC)[C@@H](C)C(=O)N[C@H](C)[C@@H](O)c1ccccc1)OC)N(C)C(=O)[C@@H](NC(=O)[C@@H](NC)C(C)C)C(C)C [MMAE, monomethylalistatin E, reference compound] (H-[NMeV]V[Dil][Dolaproine]-X1)
TI (therapeutic index) ([1]; co-cultured Jurkat and Ramos cells, selectivity Jurkat vs Ramos): 2.7
EC50 ([1]; co-cultured Ramos/Jurkat 1:1, 72 hours, flow cytometer count): 9.1 ± 3.8 nM
EC50 [2]: 24.5 ± 6.8 nM

B1: RTX-MMAE (RTX conjugated with NHS-PEG4-MMAE) (other)
heavy: QVQLQQPGAELVKPGASVKMSCKASGYTFTSYNMHWVKQTPGRGLEWIGAIYPGNGDTSYNQKFKGKATLTADKSSSTAYMQLSSLTSEDSAVYYCARSTYYGGDWYFNVWGAGTTVTVSAASTKGPSVFPLAPSSKSTSGGTAALGCLVKDYFPEPVTVSWNSGALTSGVHTFPAVLQSSGLYSLSSVVTVPSSSLGTQTYICNVNHKPSNTKVDKKVEPKSCDKTHTCPPCPAPPVAGPSVFLFPPKPKDTLMISRTPEVTCVVVDVSHEDPEVKFNWYVDGVEVHNAKTKPREEQYNSTYRVVSVLTVLHQDWLNGKEYKCKVSNKGLPSSIEKTISKAKGQPREPQVYTLPPSRDELTKNQVSLTCLVKGFYPSDIAVEWESNGQPENNYKTTPPVLDSDGSFFLYSKLTVDKSRWQQGNVFSCSVMHEALHNHYTQKSLSLSPGK
light: QIVLSQSPAILSASPGEKVTMTCRASSSVSYIHWFQQKPGSSPKPWIYATSNLASGVPVRFSGSGSGTSYSLTISRVEAEDAATYYCQQWTSNPPTFGGGTKLEIKRTVAAPSVFIFPPSDEQLKSGTASVVCLLNNFYPREAKVQWKVDNALQSGNSQESVTEQDSKDSTYSLSSTLTLSKADYEKHKVYACEVTHQGLSSPVTKSFNRGEC
modifications: conjugated with NHS-PEG4-MMAE, 0 to 2 per light chain by MS; sites not stated; conjugated with NHS-PEG4-MMAE, 0 to 2 per heavy chain by MS; sites not stated
EC50 (nM), killing of Ramos cells in co-cultured Ramos/Jurkat cells, 72 h [3]: 6 nM

B2: SYN-AC-MMAE (SYN-AC conjugated with NHS-PEG4-MMAE) (other)
heavy: QVTLRESGPALVKPTQTLTLTCTFSGFSLSTSGMSVGWIRQPPGKALEWLADIWWDDKKDYNPSLKSRLTISKDTSKNQVVLKVTNMDPADTATYYCARSMITNWYFDVWGAGTTVTVSSASTKGPSVFPLAPSSKSTSGGTAALGCLVKDYFPEPVTVSWNSGALTSGVHTFPAVLQSSGLYSLSSVVTVPSSSLGTQTYICNVNHKPSNTKVDKKVEPKSCDKTHTCPPCPAPPVAGPSVFLFPPKPKDTLMISRTPEVTCVVVDVSHEDPEVKFNWYVDGVEVHNAKTKPREEQYNSTYRVVSVLTVLHQDWLNGKEYKCKVSNKGLPSSIEKTISKAKGQPREPQVYTLPPSRDELTKNQVSLTCLVKGFYPSDIAVEWESNGQPENNYKTTPPVLDSDGSFFLYSKLTVDKSRWQQGNVFSCSVMHEALHNHYTQKSLSLSPGK
light: DIQMTQSPSTLSASVGDRVTITCKCQLSVGYMHWYQQKPGKAPKLLIYDTSKLASGVPSRFSGSGSGTEFTLTISSLQPDDFATYYCFQGSGYPFTFGGGTKLEIKRTVAAPSVFIFPPSDEQLKSGTASVVCLLNNFYPREAKVQWKVDNALQSGNSQESVTEQDSGGSGAKLAALKAKLAALKGGGGSYRKCRGGRRWCYQKGGGGSELAALEAELAALEAGGSGDSTYSLSSTLTLSKADYEKHKVYACEVTHQGLSSPVTKSFNRGEC
modifications: conjugated with NHS-PEG4-MMAE, 0 to 2 per light chain by MS; sites not stated; conjugated with NHS-PEG4-MMAE, 0 to 2 per heavy chain by MS; sites not stated
EC50 (nM), killing of Jurkat cells in co-cultured Ramos/Jurkat cells, 72 h [4]: 21 nM
EC50 (nM), killing of Ramos cells in co-cultured Ramos/Jurkat cells, 72 h [4]: 12.6 nM

B3: RTX-AC-MMAE (RTX-AC conjugated with NHS-PEG4-MMAE) (other)
heavy: QVQLQQPGAELVKPGASVKMSCKASGYTFTSYNMHWVKQTPGRGLEWIGAIYPGNGDTSYNQKFKGKATLTADKSSSTAYMQLSSLTSEDSAVYYCARSTYYGGDWYFNVWGAGTTVTVSAASTKGPSVFPLAPSSKSTSGGTAALGCLVKDYFPEPVTVSWNSGALTSGVHTFPAVLQSSGLYSLSSVVTVPSSSLGTQTYICNVNHKPSNTKVDKKVEPKSCDKTHTCPPCPAPPVAGPSVFLFPPKPKDTLMISRTPEVTCVVVDVSHEDPEVKFNWYVDGVEVHNAKTKPREEQYNSTYRVVSVLTVLHQDWLNGKEYKCKVSNKGLPSSIEKTISKAKGQPREPQVYTLPPSRDELTKNQVSLTCLVKGFYPSDIAVEWESNGQPENNYKTTPPVLDSDGSFFLYSKLTVDKSRWQQGNVFSCSVMHEALHNHYTQKSLSLSPGK
light: QIVLSQSPAILSASPGEKVTMTCRASSSVSYIHWFQQKPGSSPKPWIYATSNLASGVPVRFSGSGSGTSYSLTISRVEAEDAATYYCQQWTSNPPTFGGGTKLEIKRTVAAPSVFIFPPSDEQLKSGTASVVCLLNNFYPREAKVQWKVDNALQSGNSQESVTEQDSGGSGAKLAALKAKLAALKGGGGSYRKCRGGRRWCYQKGGGGSELAALEAELAALEAGGSGDSTYSLSSTLTLSKADYEKHKVYACEVTHQGLSSPVTKSFNRGEC
modifications: conjugated with NHS-PEG4-MMAE, 0 to 2 per light chain by MS; sites not stated; conjugated with NHS-PEG4-MMAE, 0 to 3 per heavy chain by MS; sites not stated
EC50 (nM), killing of Ramos cells in co-cultured Ramos/Jurkat cells, 72 h [4]: 0.29 nM
EC50 (nM), killing of Ramos cells in co-cultured Ramos/Jurkat cells, 72 h [3]: 0.29 nM

B4: RTX-AC (Rituxan with the CXCR4 antagonistic peptide inserted into the constant region of the light chain) (bispecific antibody, human IgG1, kappa)
heavy: QVQLQQPGAELVKPGASVKMSCKASGYTFTSYNMHWVKQTPGRGLEWIGAIYPGNGDTSYNQKFKGKATLTADKSSSTAYMQLSSLTSEDSAVYYCARSTYYGGDWYFNVWGAGTTVTVSAASTKGPSVFPLAPSSKSTSGGTAALGCLVKDYFPEPVTVSWNSGALTSGVHTFPAVLQSSGLYSLSSVVTVPSSSLGTQTYICNVNHKPSNTKVDKKVEPKSCDKTHTCPPCPAPPVAGPSVFLFPPKPKDTLMISRTPEVTCVVVDVSHEDPEVKFNWYVDGVEVHNAKTKPREEQYNSTYRVVSVLTVLHQDWLNGKEYKCKVSNKGLPSSIEKTISKAKGQPREPQVYTLPPSRDELTKNQVSLTCLVKGFYPSDIAVEWESNGQPENNYKTTPPVLDSDGSFFLYSKLTVDKSRWQQGNVFSCSVMHEALHNHYTQKSLSLSPGK
light: QIVLSQSPAILSASPGEKVTMTCRASSSVSYIHWFQQKPGSSPKPWIYATSNLASGVPVRFSGSGSGTSYSLTISRVEAEDAATYYCQQWTSNPPTFGGGTKLEIKRTVAAPSVFIFPPSDEQLKSGTASVVCLLNNFYPREAKVQWKVDNALQSGNSQESVTEQDSGGSGAKLAALKAKLAALKGGGGSYRKCRGGRRWCYQKGGGGSELAALEAELAALEAGGSGDSTYSLSSTLTLSKADYEKHKVYACEVTHQGLSSPVTKSFNRGEC
notes: hIgG1 Fc with E233P/L234V/L235A/deltaG236+A327G/A330S/P331S; also called RXT-AC
binding result [5]: binds

B5: SYN-AC (Synagis, anti-RSV, with the CXCR4 antagonistic peptide inserted into the constant region of the light chain) (bispecific antibody, human IgG1, kappa)
heavy: QVTLRESGPALVKPTQTLTLTCTFSGFSLSTSGMSVGWIRQPPGKALEWLADIWWDDKKDYNPSLKSRLTISKDTSKNQVVLKVTNMDPADTATYYCARSMITNWYFDVWGAGTTVTVSSASTKGPSVFPLAPSSKSTSGGTAALGCLVKDYFPEPVTVSWNSGALTSGVHTFPAVLQSSGLYSLSSVVTVPSSSLGTQTYICNVNHKPSNTKVDKKVEPKSCDKTHTCPPCPAPPVAGPSVFLFPPKPKDTLMISRTPEVTCVVVDVSHEDPEVKFNWYVDGVEVHNAKTKPREEQYNSTYRVVSVLTVLHQDWLNGKEYKCKVSNKGLPSSIEKTISKAKGQPREPQVYTLPPSRDELTKNQVSLTCLVKGFYPSDIAVEWESNGQPENNYKTTPPVLDSDGSFFLYSKLTVDKSRWQQGNVFSCSVMHEALHNHYTQKSLSLSPGK
light: DIQMTQSPSTLSASVGDRVTITCKCQLSVGYMHWYQQKPGKAPKLLIYDTSKLASGVPSRFSGSGSGTEFTLTISSLQPDDFATYYCFQGSGYPFTFGGGTKLEIKRTVAAPSVFIFPPSDEQLKSGTASVVCLLNNFYPREAKVQWKVDNALQSGNSQESVTEQDSGGSGAKLAALKAKLAALKGGGGSYRKCRGGRRWCYQKGGGGSELAALEAELAALEAGGSGDSTYSLSSTLTLSKADYEKHKVYACEVTHQGLSSPVTKSFNRGEC
notes: hIgG1 Fc with E233P/L234V/L235A/deltaG236+A327G/A330S/P331S
binding result [5]: binds

B6: RTX (Rituxan, anti-CD20 antibody) (antibody, V domains shown)
VH: QVQLQQPGAELVKPGASVKMSCKASGYTFTSYNMHWVKQTPGRGLEWIGAIYPGNGDTSYNQKFKGKATLTADKSSSTAYMQLSSLTSEDSAVYYCARSTYYGGDWYFNVWGAGTTVTVSA
VL: QIVLSQSPAILSASPGEKVTMTCRASSSVSYIHWFQQKPGSSPKPWIYATSNLASGVPVRFSGSGSGTSYSLTISRVEAEDAATYYCQQWTSNPPTFGGGTKLEIKR
notes: Rituxan Fab heavy chain cloned into pFuse-hIgG1-Fc carrying E233P/L234V/L235A/deltaG236+A327G/A330S/P331S; expressed in HEK293
binding result [6]: no binding
